{"source": "paper PMC7611338", "about": "(Current biology : CB, 2021)", "molecular_target": "the molecule itself", "assay": "fluorescence correlation spectroscopy"}
{"protein": "dE-cad^WT::GFP (Drosophila E-cadherin, wild type, GFP-tagged) (natural protein) PGQSYAIIVRAYNVVPDPPQDAQIEVRIRVVESSIKPPSFVNPIDTPIYLKENLKNFTHPIATLRAVSNMPDKPEVIFELNTGRTEQTNSKNTFVFNQIGNEVTISLGKTLDYEAITDYTLTMIVRNTHELGTEHQIKIQVEDVNDNIPYYTEVKSGTILENEPPGTPVMQVRAFDMDGTSANNIVSFELADNREYFTIDPNTGNITALTTFDREERDFYNVKVIASDNSPSSLFDNGEPNRGHQVFRISIGDKNDHKPHFQQDKYLAERLLEDANTNTEVIEVKAEDEDNASQILYSIESGNVGDAFKIGLKTGKITVNQKLDYETITEYELKVRAFDGIYDDYTTVVIKIEDVNDNPPVFKQDYSVTILEETTYDDCILTVEAYDPDIKDRNADQHIVYSIHQNDGNRWTIDNSGCLRLVKTLDRDPPNGHKNWQVLIKANDEDGVGTTVSTVKEVTVTLKDINDNAPFLINEMPVYWQENRNPGHVVQLQANDYDDTPGAGNFTFGIDSEATPDIKTKFSMDGDYLHANVQFDREAQKEYFIPIRISDSGVPRQSAVSILHLVIGDVNDNAMSEGSSRIFIYNYKGEAPETDIGRVFVDDLDDWDLEDKYFEWKDLPHDQFRLNPSTGMITMLVHTAEGEYDLSFVVTEDSMFVPRHSVDAYVTVVVRELPEEAVDKSGSIRFINVTKEEFISVPRDFQSPDALSLKDRLQLSLAKLFNTSVSNVDVFTVLQNENHTLDVRFSAHGSPYYAPEKLNGIVAQNQQRLENELDLQMLMVNIDECLIEKFKCEESCTNELHKSSVPYMIYSNTTSFVGVNAFVQAQCVCEAPLMRRCLNGGSPRYGENDVCDCIDGFTGPHCELVSVAFYGSGYAFYEPIAACNNTKISLEITPQIDQGLIMYLGPLNFNPLLAISDFLALELDNGYPVLTVDYGSGAIRIRHQHIKMVADRTYQLDIILQRTSIEMTVDNCRLSTCQTLGAPIGPNEFLNVNAPLQLGGTPVDLEQLGRQLNWTHVPNQKGFFGCIRNLTINEQTYNLGMPSVFRNIDSGCQQSVAVAFSFGIDRNFIIAIIVCLALLLIILLAVVVQKKQKNGWHEKDIDDIRETIINYEDEGGGERDTDYDLNVLRTQPFYEEKLYKDPHALQGNMRDPNDIPDIADFLGDKKENCDRDVGATTVDDVRHYAYEGDGNSDGSLSSLASCTDDGDLNFDYLSNFGPRFRKLADMYGEEPSDTDSNVDDDQGWRI", "values": [{"measurement": "stoichiometry N", "value": "~4"}]}
